According to the supplement of paper PMC10567573:

B1: PSD2 (parent)
chain: LTHFSRRYCQCNPDDSTSEDGIHT

Variants of: B1
Assay: protein stability index of a GFP-peptide fusion (GPS, HEK-293T) (PSI 1-6); higher = more stable
Conditions: c terminus: a fixed tail appended
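Also: lentivirally expressed fusions sorted by FACS into six bins by GFP to DsRed ratio, PSI derived from sequencing read proportions per bin multiplied by bin number.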

Point of comparison: LTHFSRRYCQCTPDDSTSEDGIHT, protein stability index 3.69. Against it:
- LTHASRRYCQCNPDDSTSEDGIHT — higher, 4.42
- LTHRSRRYCQCNPDDSTSEDGIHT — lower, 3.33
- LTHTSRRYCQCNPDDSTSEDGIHT — higher, 4.07
- LTHISRRYCQCNPDDSTSEDGIHT — lower, 3.17
- LTHGSRRYCQCNPDDSTSEDGIHT — higher, 4.57
- LTHFSRRYCQHNPDDSTSEDGIHT — higher, 4.17
- LTHFSRRYCQINPDDSTSEDGIHT — higher, 4.31
- LTHFSRRYCQTNPDDSTSEDGIHT — higher, 4.31
- LTHFSRRYCQQNPDDSTSEDGIHT — higher, 4.71
- LTHFSRRYCQENPDDSTSEDGIHT — higher, 4.38
- LTHFSRRYCQANPDDSTSEDGIHT — higher, 4.22
- LTHFSRRYCQMNPDDSTSEDGIHT — higher, 3.84
- LDHFSRRYCQCNPDDSTSEDGIHT — higher, 4.29
- LKHFSRRYCQCNPDDSTSEDGIHT — lower, 2.47
- LPHFSRRYCQCNPDDSTSEDGIHT — lower, 3.26
- LMHFSRRYCQCNPDDSTSEDGIHT — lower, 2.86
- LYHFSRRYCQCNPDDSTSEDGIHT — lower, 2.79
- LLHFSRRYCQCNPDDSTSEDGIHT — lower, 2.41
- LAHFSRRYCQCNPDDSTSEDGIHT — lower, 3.18
- LVHFSRRYCQCNPDDSTSEDGIHT — lower, 2.24
- LSHFSRRYCQCNPDDSTSEDGIHT — lower, 3.23
- LGHFSRRYCQCNPDDSTSEDGIHT — lower, 3.67
- LTHFSRRYRQCNPDDSTSEDGIHT — higher, 4.1
- LTHFSRRYKQCNPDDSTSEDGIHT — higher, 4.39
- LTHFSRRYAQCNPDDSTSEDGIHT — higher, 4.23
- LTHFSRRYGQCNPDDSTSEDGIHT — higher, 4.15
- LTHFSRRYWQCNPDDSTSEDGIHT — lower, 3.57
- LTHFSRRYIQCNPDDSTSEDGIHT — higher, 3.96
- LTHFSRRYMQCNPDDSTSEDGIHT — higher, 4.16
- LTHFSRRYLQCNPDDSTSEDGIHT — lower, 3.67
- LTHFSRRYEQCNPDDSTSEDGIHT — higher, 4.16
- LTHFSRRYCQCNPDDSTSMDGIHT — lower, 1.94
- LTHFSRRYCQCNPDDSTSDDGIHT — lower, 3.34
- LTHFSRRYCQCNPDDSTSVDGIHT — lower, 3.33
- LTHFSRRYCQCNPDDSTSNDGIHT — lower, 2.84
- LTHFSRRYCQCNPDDSTSHDGIHT — lower, 2.95
- LTHFSRRYCQCNPDDSTSADGIHT — lower, 2.36
- LTHFSRRYCQCNPDDSTSKDGIHT — lower, 2.81
- LTHFSRRYCQCNPDDSTSCDGIHT — lower, 3.04
- LTHFSRRYCQCNPDDSTSRDGIHT — lower, 1.59
- LTHFSFRYCQCNPDDSTSEDGIHT — lower, 2.33
- LTHFSARYCQCNPDDSTSEDGIHT — higher, 4.22
- LTHFSMRYCQCNPDDSTSEDGIHT — lower, 3.29
- LTHFSQRYCQCNPDDSTSEDGIHT — lower, 3.49
- LTHFSPRYCQCNPDDSTSEDGIHT — higher, 3.9
- LTHFSHRYCQCNPDDSTSEDGIHT — higher, 3.93
- LTHFSRRDCQCNPDDSTSEDGIHT — higher, 4.72
- LTHFSRRLCQCNPDDSTSEDGIHT — higher, 3.86
- LTHFSRRFCQCNPDDSTSEDGIHT — lower, 3.27
- LTHFSRRICQCNPDDSTSEDGIHT — lower, 3.48
- LTHFSRRVCQCNPDDSTSEDGIHT — higher, 3.8
- LTHFSRRYCACNPDDSTSEDGIHT — higher, 3.72
- LTHFSRRYCCCNPDDSTSEDGIHT — lower, 2.63
- LTHFSRRYCYCNPDDSTSEDGIHT — lower, 3.01
- LTHFSRRYCDCNPDDSTSEDGIHT — higher, 3.84
- LTHFSRRYCECNPDDSTSEDGIHT — higher, 3.87
- LTHFSRRYCTCNPDDSTSEDGIHT — lower, 3.35
- LTHFSRRYCHCNPDDSTSEDGIHT — lower, 2.88
- LTHFSRRYCGCNPDDSTSEDGIHT — lower, 3.21
- LTHFSRRYCQCNPDDDTSEDGIHT — lower, 3.17
- LTHFSRRYCQCNPDDGTSEDGIHT — lower, 3.09
- LTHFSRRYCQCNPDDCTSEDGIHT — lower, 2.75
- LTHFSRRYCQCNPDDRTSEDGIHT — lower, 2.61
- LTHFSRRYCQCNPDDATSEDGIHT — lower, 2.57
- LTHFSRRYCQCNPDDFTSEDGIHT — lower, 2.77
- LTHFSRRYCQCNPDDSTSEDGAHT — higher, 3.91
- LTHFSRRYCQCNPDDSTSEDGHHT — higher, 3.7
- LTHFSRRYCQCNPDDSTSEDGLHT — lower, 3.24
- LTHFSRRYCQCNPDDSTSEDGRHT — lower, 3.22
- LTHFSRRYCQCNPDDSTSEDGEHT — higher, 3.87
- LTHFSRRYCQCNPDDSTSEDGPHT — lower, 2.9
- LTHFSRRYCQCNPDDSTSEDGDHT — higher, 4.27
- LTHFSRRYCQCNCDDSTSEDGIHT — lower, 2.73
- LTHFSRRYCQCNGDDSTSEDGIHT — higher, 3.91
- LTHFSRRYCQCNLDDSTSEDGIHT — lower, 2.71
- LTHFSRRYCQCNDDDSTSEDGIHT — higher, 4.03
- LTHFSRRYCQCNRDDSTSEDGIHT — lower, 3.19
- LTHFSRRYCQCNQDDSTSEDGIHT — lower, 3.06
- LTHFSRRYCQCNPDDSTSEDCIHT — lower, 2.91
- LTHFSRRYCQCNPDDSTSEDHIHT — lower, 3.34
- LTHFSRRYCQCNPDDSTSEDWIHT — lower, 1.96
- LTHFSRRYCQCNPDDSTSEDKIHT — lower, 2.95
- LTHFSRRYCQCNPDDSTSEDAIHT — lower, 3.57
- LTHFSRRYCQCNPDDSTSEDRIHT — lower, 2.93
- LTHFSRRYCQCNPDDSTSEDEIHT — higher, 4.26
- LTHFSRRYCQCNPDDSTSEDFIHT — lower, 2.69
- LTHFSRRYCQCNPDDSPSEDGIHT — lower, 3.68
- LTHFSRRYCQCNPDDSVSEDGIHT — lower, 2.78
- LTHFSRRYCQCNPDDSKSEDGIHT — lower, 3.6
- LTHFSRRYCQCNPDDSFSEDGIHT — lower, 2.77
- LTHFSRRYCQCNPDDSGSEDGIHT — lower, 2.7
- LTHFSRRYCQCNPDDSHSEDGIHT — lower, 3.18
- LTHFSRRYCQCNPDDSCSEDGIHT — lower, 2.72
- LTHFSRRYCQCNPDDSTSEDGIHR — lower, 2.27
- LTHFSRRYCQCNPDDSTSEDGIHI — lower, 3.05
- LTHFSRRYCQCNPDDSTSEDGIHS — lower, 3.02
- LTHFSRRYCQCNPDDSTSEDGIHA — lower, 3.46
- LTHFSRRYCQCNPDDSTSEDGIHC — lower, 2.68
- LTHFSRRYCQCNPDDSTSEDGIHL — lower, 2.38
- LTHFSRRYCQCNPDDSTSEDGIHF — lower, 2.08
- LTHFSRRYCQCNPDDSTSEDGIHM — lower, 2.52
- LTHFSRRYCQCNPDDSTSEDGIHN — lower, 3.4
- LTHFSRRYCQCNPDDSTSEDGIHD — higher, 3.86
- LTHFSRRYCQCNPDDSTSEDGIHQ — lower, 3.37
- WTHFSRRYCQCNPDDSTSEDGIHT — lower, 3.36
- MTHFSRRYCQCNPDDSTSEDGIHT — lower, 3.16
- NTHFSRRYCQCNPDDSTSEDGIHT — higher, 3.75
- ETHFSRRYCQCNPDDSTSEDGIHT — lower, 3.17
- TTHFSRRYCQCNPDDSTSEDGIHT — higher, 3.75
- GTHFSRRYCQCNPDDSTSEDGIHT — higher, 3.79
- LTHFSRRYCQCNPVDSTSEDGIHT — lower, 2
- LTHFSRRYCQCNPHDSTSEDGIHT — lower, 2.14
- LTHFSRRYCQCNPKDSTSEDGIHT — lower, 2.49
- LTHFSRRYCQCNPRDSTSEDGIHT — lower, 2.24
- LTHFSRRYCQCNPFDSTSEDGIHT — lower, 2.04
- LTHFSRRYCQCNPEDSTSEDGIHT — lower, 3.02
- LTHFSRRYCQCNPCDSTSEDGIHT — lower, 2.8
- LTHFSRRYCQCNPGDSTSEDGIHT — lower, 2.35
- LTHFKRRYCQCNPDDSTSEDGIHT — lower, 2.57
- LTHFLRRYCQCNPDDSTSEDGIHT — lower, 3.06
- LTHFTRRYCQCNPDDSTSEDGIHT — lower, 3.42
- LTHFIRRYCQCNPDDSTSEDGIHT — lower, 2.34
- LTHFPRRYCQCNPDDSTSEDGIHT — lower, 3.4
- LTHFHRRYCQCNPDDSTSEDGIHT — lower, 3.36
- LTHFYRRYCQCNPDDSTSEDGIHT — lower, 2.27
- LTHFMRRYCQCNPDDSTSEDGIHT — lower, 2.89
- LTHFQRRYCQCNPDDSTSEDGIHT — higher, 4.35
- LTHFVRRYCQCNPDDSTSEDGIHT — lower, 2.67
- LTHFSRSYCQCNPDDSTSEDGIHT — lower, 3.51
- LTHFSRYYCQCNPDDSTSEDGIHT — lower, 2.92
- LTHFSRIYCQCNPDDSTSEDGIHT — lower, 3.64
- LTHFSRQYCQCNPDDSTSEDGIHT — higher, 4.57
- LTHFSRNYCQCNPDDSTSEDGIHT — higher, 3.75
- LTHFSRMYCQCNPDDSTSEDGIHT — higher, 3.84
- LTHFSREYCQCNPDDSTSEDGIHT — higher, 4.43
- LTHFSRAYCQCNPDDSTSEDGIHT — lower, 3.3
- LTHFSRTYCQCNPDDSTSEDGIHT — higher, 4.01
- LTHFSRFYCQCNPDDSTSEDGIHT — lower, 3.26
- LTHFSRHYCQCNPDDSTSEDGIHT — higher, 3.8
- LTHFSRRYCQCMPDDSTSEDGIHT — lower, 3.52
- LTHFSRRYCQCKPDDSTSEDGIHT — lower, 3.37
- LTHFSRRYCQCSPDDSTSEDGIHT — higher, 4.01
- LTHFSRRYCQCAPDDSTSEDGIHT — lower, 3.34
- LTHFSRRYCQCIPDDSTSEDGIHT — lower, 2.77
- LTHFSRRYCQCLPDDSTSEDGIHT — lower, 2.96
- LTHFSRRYCQCYPDDSTSEDGIHT — lower, 2.39
- LTHFSRRYCQCFPDDSTSEDGIHT — lower, 2.69
- LTHFSRRYCQCRPDDSTSEDGIHT — lower, 3.21
- LTCFSRRYCQCNPDDSTSEDGIHT — lower, 2.73
- LTQFSRRYCQCNPDDSTSEDGIHT — lower, 3.47
- LTKFSRRYCQCNPDDSTSEDGIHT — lower, 3.52
- LTGFSRRYCQCNPDDSTSEDGIHT — lower, 2.92
- LTPFSRRYCQCNPDDSTSEDGIHT — lower, 3.03
- LTSFSRRYCQCNPDDSTSEDGIHT — lower, 3.29
- LTHFSRRYCQCNPDPSTSEDGIHT — lower, 2.46
- LTHFSRRYCQCNPDGSTSEDGIHT — lower, 2.61
- LTHFSRRYCQCNPDESTSEDGIHT — higher, 4.1
- LTHFSRRYCQCNPDFSTSEDGIHT — lower, 3.21
- LTHFSRRYCQCNPDKSTSEDGIHT — lower, 2.28
- LTHFSRRYCQCNPDTSTSEDGIHT — lower, 2.79
- LTHFSRRYCQCNPDISTSEDGIHT — lower, 2.1
- LTHFSRRYCQCNPDDSTSEEGIHT — lower, 3.64
- LTHFSRRYCQCNPDDSTSEMGIHT — lower, 2.65
- LTHFSRRYCQCNPDDSTSESGIHT — lower, 2.42
- LTHFSRRYCQCNPDDSTSEHGIHT — lower, 2.99
- LTHFSRRYCQCNPDDSTSETGIHT — lower, 2.86
- LTHFSRRYCQCNPDDSTSEYGIHT — lower, 1.81
- LTHFSRRYCQCNPDDSTNEDGIHT — lower, 3.67
- LTHFSRRYCQCNPDDSTLEDGIHT — lower, 2.35
- LTHFSRRYCQCNPDDSTGEDGIHT — lower, 2.93
- LTHFSRRYCQCNPDDSTCEDGIHT — the same, 3.69
- LTHFSRRYCQCNPDDSTYEDGIHT — lower, 2.35
- LTHFSRRYCQCNPDDSTMEDGIHT — lower, 2.97
- LTHFSRRYCQCNPDDSTVEDGIHT — lower, 2.35
- LTHFSRRYCQCNPDDSTHEDGIHT — lower, 3.5
- LTHFSRRYCQCNPDDSTTEDGIHT — lower, 2.57
- LTHFSRRYCQCNPDDSTSEDGIAT — lower, 3.66
- LTHFSRRYCQCNPDDSTSEDGIDT — lower, 3.58
- LTHFSRRYCQCNPDDSTSEDGIVT — lower, 2.93
- LTHFSRRYCQCNPDDSTSEDGIYT — lower, 3.58
- LTHFSRRYCQCNPDDSTSEDGIET — higher, 3.91
- LTHFSRRYCQCNPDDSTSEDGIQT — higher, 3.73
- LTHFSRRYCQCNPDDSTSEDGIPT — higher, 3.9
- LTHFSRRYCQCNPDDSTSEDGINT — lower, 3.64
- LTHFSRRYCQCNPDDSTSEDGIWT — lower, 2.62
- LTHFSRRYCQCNPDDSTSEDGIRT — lower, 2.95
- LTHFSRRYCQCNPDDSTSEDGITT — lower, 2.75
